{"source": "paper PMC9788556", "about": "“Nanobodies against Pfs230 block Plasmodium falciparum transmission” (Biochemical Journal, 2022)", "binders": {"B1": {"name": "Pfs230 D1D2 (aa 587–889) (domain or fragment, Plasmodium falciparum, UniProt P68874 587-889, looked up)", "chain": "TNKEYVCDFTDQLKPTESGPKVKKCEVKVNEPLIKVKIICPLKGSVEKLYDNIEYVPKKSPYVVLTKEETKLKEKLLSKLIYGLLISPTVNEKENNFKEGVIEFTLPPVVHKATVFYFICDNSKTEDDNKKGNRGIVEVYVEPYGNKINGCAFLDEDEEEEKYGNQIEEDEHNEKIKMKTFFTQNIYKKNNIYPCYMKLYSGDIGGILFPKNIKSTTCFEEMIPYNKEIKWNKENKSLGNLVNNSVVYNKEMNAKYFNVQYVHIPTSYKDTLNLFCSIILKEEESNLISTSYLVYVSINEELN", "notes": "used untagged; also called first two 6-cys domains of Pfs230; source: Sf21 insect cells (baculovirus), secreted, purified (Ni-NTA, TEV cleavage, SEC); not shown: His8, N-terminal, cleaved"}, "B2": {"name": "Pfs230 Pro-D1D2 (aa 532–889) (domain or fragment, Plasmodium falciparum, UniProt P68874 532-889, looked up)", "chain": "DGENVIKIIRSVLQSGALPSVGVDELDKIDLSYETTESGDTAVSEDSYDKYASNNTNKEYVCDFTDQLKPTESGPKVKKCEVKVNEPLIKVKIICPLKGSVEKLYDNIEYVPKKSPYVVLTKEETKLKEKLLSKLIYGLLISPTVNEKENNFKEGVIEFTLPPVVHKATVFYFICDNSKTEDDNKKGNRGIVEVYVEPYGNKINGCAFLDEDEEEEKYGNQIEEDEHNEKIKMKTFFTQNIYKKNNIYPCYMKLYSGDIGGILFPKNIKSTTCFEEMIPYNKEIKWNKENKSLGNLVNNSVVYNKEMNAKYFNVQYVHIPTSYKDTLNLFCSIILKEEESNLISTSYLVYVSINEELN", "notes": "Pfs230 of Plasmodium falciparum (PF3D7_0209000), amino acids 532-889: a part of the prodomain and 6-cys domains D1 and D2; used untagged; source: Sf21 insect cells (baculovirus), secreted, purified (Ni-NTA, TEV cleavage, SEC); not shown: His8, N-terminal, cleaved"}, "B3": {"name": "nanobody B4 (VHH)", "VHH": "QVQLQESGGGLVQPGGSLRLSCAASGFTLDYYGIGWFRQAPGKEREGVSCISSSDGSTYYADSVKGRFTISRDNAKNTVYLQMNSLKPEDTAVYYCAADLTGIGCTTAQAMGVIGDFGDFGSWGQGTQVTVSS", "notes": "From a phage display library (pMES4) of an alpaca immunized with Pfs230 D1D2; source: E. coli WK6, periplasmic extract, purified (HisTrap)"}, "B4": {"name": "nanobody E11 (VHH)", "VHH": "B3 VHH with L29S, S49A, F68S, T101S, G112D", "notes": "as for B3"}, "B5": {"name": "nanobody G2 (VHH)", "VHH": "QVQLQESGGGLVQAGGSLRLSCAASGRTFSNYFMGWFRQAPGKEREFVAAVSWSGGSTYYADSVKGRLTISRDNAKNTVYLQMNSLKPEDTAVYYCAAGERYFPMEPRRGYDYWGQGTQVTVSS", "notes": "as for B3"}, "B6": {"name": "nanobody E1 (VHH)", "VHH": "QVQLQESGGGLVQPGGSLRLSCAASGRTFSSYFMGWFRQAPGKGRVFVASISWSGGSTYYADSVKGRFTISRDNAENTVYLQMNSLKPEDTAVYYCAAGTRATPLDWASGMDYWGKGTQVTVSS", "notes": "as for B3"}, "B7": {"name": "nanobody A11 (VHH)", "VHH": "QVQLQESGGGLVQPGESLRLSCAASGRTSSSYAMGWFRQAPGKEREFVASISWSGGSTYYADSVKGRFTLSRDNAKNTVYLQMNSLKPEDTAVYYCAADGIFYSDYPLSVDDFHSWGQGTQVTVSS", "notes": "as for B3"}, "B8": {"name": "nanobody D6 (VHH)", "VHH": "QVQLQESGGGLVQAGDSLRLSCAASGRTFSSYFMGWFRQAPGKEREFVAAISWSGGSTYYADSVKGRFTISRDNVKNTVYLQMNSLEPEDAAVYYCAGGGSYYPMSPRNGMDYWGKGTQVTVSS", "notes": "as for B3"}, "B9": {"name": "nanobody D1 (VHH)", "VHH": "QVQLQESGGGLVQAGDSLRLSCTASGRTFSNHAMGWFRQAPGKEREIVAVIFGTGRNSWYVDSVKGRFTISRDNAKNTVALQMNRLKPEDTAVYYCASGRTWYSGSSMAEYDYWGQGTQVTVSS", "notes": "Not to be confused with the D1 domain of Pfs230; From a phage display library (pMES4) of an alpaca immunized with Pfs230 D1D2; also called D1 (nanobody); source: E. coli WK6, periplasmic extract, purified (HisTrap)"}, "B10": {"name": "nanobody G5 (VHH)", "VHH": "QVQLQESGGGLVQAGGSLRLSCAASGRTFNDYAMYWFRQAPGKEREFVADITWSGSSTYYADSVKGRFTISRDNAKNTVFLQMNSLKPEDTALYYCAADSRYYGIGIGTPRYWGQGTQVTVSS", "notes": "as for B3"}, "B11": {"name": "nanobody A10 (VHH)", "VHH": "QVQLQESGGGLVQAGSSLRLSCAASGGTFSNYAMGWFRQAPGKEREFVAAIGWSGGTYYTDSVEGRFTISRDNAKNTVYLQMNSLKPEDTAVYYCAAKRSGSSWSERGYDYWGQGTQVTVSS", "notes": "as for B3"}, "B12": {"name": "nanobody D11 (VHH)", "VHH": "B11 VHH with G27R, N31S, K75E, R99A", "notes": "as for B3"}, "B13": {"name": "nanobody F5 (VHH)", "VHH": "QVQLQESGGGLVQPGGSLRLSCAASGFTLDRYAIGWFRQAPGKEREGVSCISSSDGSTYYADSVKGRFTISRDNAKNTVYLQMNSLKPEDTAVYYCARDHGPCTVLADILYDYGMDYWGKGTQVTVSS", "notes": "From a phage display library (pMES4) of an alpaca immunized with Pfs230 D1D2; also called anti-Pfs230 F5; source: E. coli WK6, periplasmic extract, purified (HisTrap)"}, "B14": {"name": "nanobody F10 (VHH)", "VHH": "B8 VHH with D16G, S31D, I51V, V75A, Y80F, E87K, A91T, R108Y, N109D", "notes": "From a phage display library (pMES4) of an alpaca immunized with Pfs230 D1D2; also called anti-Pfs230 F10; source: E. coli WK6, periplasmic extract, purified (HisTrap)"}}, "note": "Numbering of substitutions follows the chain as printed."}
{"biological_target": "T1, F10-Fc (alpaca)", "T1 construct": "as the VHH of m14 (nanobody F10); also called F10 nanobody-Fc fusion; source: HEK293, transient transfection, purified from supernatant (HiTrap PrismA, SEC)", "assay": "BLI; Octet RED96e; nanobody-Fc or LMIV230-01 (5 µg/ml) on anti-hIgG Fc capture sensor tips; untagged Pfs230 D1D2 or Pfs230 Pro-D1D2 3 to 100 nM or 94–3000 nM; PBS pH 7.4, 0.1% BSA, 0.05% TWEEN-20, 25°C; global 1 : 1 fit", "details": "both partners purified", "units": {"Kd": "pM"}}
{"binder": "B1", "Kd": 130}
{"biological_target": "T2, F5-Fc (alpaca)", "T2 construct": "as the VHH of m13 (nanobody F5); also called F5 nanobody-Fc fusion; source: HEK293, transient transfection, purified from supernatant (HiTrap PrismA, SEC)", "assay": "BLI; Octet RED96e; nanobody-Fc or LMIV230-01 (5 µg/ml) on anti-hIgG Fc capture sensor tips; untagged Pfs230 D1D2 or Pfs230 Pro-D1D2 3 to 100 nM or 94–3000 nM; PBS pH 7.4, 0.1% BSA, 0.05% TWEEN-20, 25°C; global 1 : 1 fit", "details": "both partners purified", "units": {"Kd": "pM"}}
{"binder": "B2", "Kd": 118000}
{"binder": "B1", "Kd": 570}
{"biological_target": "T3, Pfs230 D1 (aa 587–731) (Plasmodium falciparum 3D7, UniProt P68874)", "T3 construct": "used untagged; also called first 6-cys domain of Pfs230; source: Sf21 insect cells (baculovirus), secreted, purified (Ni-NTA, TEV cleavage, SEC); not shown: His8, N-terminal, cleaved", "assay": "BLI; Octet RED96e; monomeric nanobodies (5 µg/ml) on Ni-NTA sensor tips; untagged Pfs230 D1D2 6 to 200 nM or untagged Pfs230 D1 0.8 to 100 nM; PBS pH 7.4, 0.1% BSA, 0.05% TWEEN-20, 25°C; global 1 : 1 fit", "details": "both partners purified"}
{"binder": "B3", "binding result": "binds"}
{"binder": "B4", "binding result": "binds"}
{"binder": "B5", "binding result": "binds"}
{"binder": "B6", "binding result": "binds"}
{"binder": "B7", "binding result": "binds"}
{"binder": "B8", "binding result": "binds"}
{"binder": "B9", "binding result": "binds"}
{"binder": "B10", "binding result": "binds"}
{"binder": "B11", "binding result": "binds"}
{"binder": "B12", "binding result": "binds"}
{"biological_target": "B1", "assay": "BLI; Octet RED96e; monomeric nanobodies (5 µg/ml) on Ni-NTA sensor tips; untagged Pfs230 D1D2 6 to 200 nM or untagged Pfs230 D1 0.8 to 100 nM; PBS pH 7.4, 0.1% BSA, 0.05% TWEEN-20, 25°C; global 1 : 1 fit", "details": "both partners purified"}
{"binder": "B3", "binding result": "binds"}
{"binder": "B4", "binding result": "binds"}
{"binder": "B6", "binding result": "binds"}
{"binder": "B12", "binding result": "binds"}
{"biological_target": "B1", "assay": "far-Western, overlay or dot blot; western blot: 250 ng untagged Pfs230 D1D2 separated on a 4–12% Bis-Tris gel in reducing conditions, on PVDF, probed with 0.5 µg/ml nanobody overnight at 4°C", "details": "both partners purified"}
{"binder": "B7", "binding result": "binds"}
{"binder": "B8", "binding result": "binds"}
{"biological_target": "B2", "assay": "SEC; size shift assay: Pfs230 Pro-D1D2 or Pfs230 D1D2 incubated with nanobodies or LMIV230-01 at different molar ratios for 1 h on ice; SD200 3.2/300 column, 20 mM HEPES pH 7.5, 150 mM NaCl", "details": "both partners purified"}
{"binder": "B13", "stoichiometry N": 1}
{"binder": "B14", "stoichiometry N": 1}
{"biological_target": "B1", "assay": "far-Western, overlay or dot blot; western blot: 250 ng untagged Pfs230 D1D2 separated on a 4–12% Bis-Tris gel in non-reducing conditions, on PVDF, probed with 0.5 µg/ml nanobody overnight at 4°C", "details": "both partners purified"}
{"binder": "B5", "binding result": "binds"}
{"binder": "B10", "binding result": "binds"}
{"binder": "B11", "binding result": "binds"}
